Entries after “also recorded” stand apart in the source; their conditions may differ.

The subject of data set [1] is human Mo-DCs. Kind of data set: Flow cytometry of cell surface markers on treated, LPS-matured Mo-DCs. The settings on record: CCP6-based peptides at 100 μM. On the technique in general: A flow cytometer gives signals particle by particle.
The subject of data set [2] is allogeneic CD3+ T cells. Kind of data set: Mixed leukocyte reaction ([3H]-thymidine incorporation). It is filed as cell-based, human. To be noted: Mo-DCs pre-incubated and matured with LPS; DC:T 1:40, 1:80, 1:160; 5 days. How it is done:
CD3^+ T cells (10^5/well) and C4BP-treated (α7β1 and α7β0), or Factor H-treated, and LPS-activated Mo-DCs were seeded in a 96-well round-bottom plate at various DC:T cell ratios (1:40, 1:80 and 1:160) and cultured in X-VIVO 15 medium (Biowittaker, Walkersville, Md.) supplemented with 100 μg/ml of streptomycin, 100 IU/ml of penicillin and 2 mM L-glutamine (all from Invitrogen) plus 2% Human AB Serum. Allospecific proliferation was measured after 5 days of incubation. At day 4, the […] [^3H]-thymidine (1 μCi/well, Perkin Elmer, Boston, Mass.) was added, followed by incubation for another 16 h. Labeled cells were then harvested onto glass-fiber filters with a Filtermate Harvester (Packard, Meriden, Conn.), and the T cell proliferation rate was determined by the amount of [^3H]-thymidine incorporation, which was measured in a TopCount NXT counter (Packard). Results are reported as the mean cpm±SD of thymidine incorporation in quadruplicate culture wells.
For orientation: Dividing cells build labelled thymidine or BrdU into new DNA.

The subject of data set [3] is human Mo-DCs. Kind of data set: Quantitative RT-PCR of CCR7, IDO, BIC-1, SOD2 in Mo-DCs. The settings on record: RT-qPCR; pretreated, LPS-matured Mo-DCs. The class given is cell-based. The protocol: Mo-DCs (10^6/condition) were harvested at day 7 and the mRNA was extracted using the RNeasy RNA Isolation kit (Qiagen) and incubated with RNase-free DNase I (Ambion, Austin, Tex.) according to the manufacturer's protocol. A two-step real-time RT-PCR technique was used to determine the relative mRNA levels of human CCR7, BIC-1, IDO and SOD2. Reverse transcription reactions were performed with 500 ng of total RNA using the Omniscript RT kit (Qiagen). Quantification of mRNA levels was performed by real-time polymerase chain reaction (PCR) with the use of the LightCycler technology (Roche Molecular Biochemicals, Indianapolis, Ind.). The following primers were used: CCR7-f (5′-TGGGCATCTGGATACTAGC-3′) (SEQ ID NO:6), CCR7-r (5′-AAGAAAGGGTTGACGCAGC-3′) (SEQ ID NO:7); IDO-f (5′-[…]-3′) (SEQ ID NO:8); IDO-r (5′-[…]-3′) (SEQ ID NO:9); BIC-1-f (5′-[…]-3′) (SEQ ID NO:10), BIC-1-r (5′-[…]-3′) (SEQ ID NO:11); SOD2-f (5′-GACAAACCTCAGCCCTAAC-3′) (SEQ ID NO:12), SOD2-r (5′-[…]-3′) (SEQ ID NO:13), yielding products of 435, 227, 296 bp, and 248 bp, respectively. These gene-specific primer pairs were designed using Oligo 4.0 and Primer 3 software packages (MBI, Cascade, Colo.) and selected to prevent primer-dimer formation.
All samples were normalized with the use of the following primer set for the constitutively expressed human cyclophilin gene: CypA-f (5′-[…]-3′) (SEQ ID NO:14) and CypA-r (5′-CACCACATGCTTGCCATCC-3′) (SEQ ID NO:15) (Pluvinet R. et al., 2004, Blood. 104: 3642-3646). All primers were purchased from Bonsai Technologies (Copenhagen, Denmark).
PCR amplifications were performed in a 20 μl volume containing 2 μl ready-to-use reaction mix, 10×DNA Master SYBR Green I (Roche Molecular Biochemicals); MgCl2 (3 mM for CCR7; 4 mM for BIC-1 and SOD2, and 5 mM for IDO); 0.15 μM of each primer; 5% dimethyl sulfoxide (DMSO); and 75 ng cDNA as template. The amplification program used an initial denaturation at 95° C. for 10 min, followed by 45 cycles: 95° C. for 1 sec; 58° C. (CCR7 and SOD2)/60° C. (BIC-1 and IDO) for 5 sec; 72° C. for 10 sec.
Background: Quantitative PCR measures a nucleic acid by following its amplification.

In data set [4] the test system is human Mo-DCs. Kind of data set: Scanning electron microscopy of Mo-DC surface morphology. The settings on record: SEM after 48 h LPS maturation. The class given is cell-based. How it is done:
Monocytes were seeded on glass slides covered with either poly-L-lysine (25 μg/ml) or fibronectin (42 μg/ml), cultured for 5 days in complete RPMI medium supplemented with 800 U/ml GM-CSF, 500 U/ml IL-4, and the C4BP isoforms α7β1, α7β0, or Factor H (10 μg/ml), and further stimulated with LPS for 48 hours in the same medium. The resulting DCs were fixed in 1% paraformaldehyde and 1.25% glutaraldehyde in cacodylate buffer for 2 h. Finally, the cells were post-fixed in 1% OsO4, and dehydrated with graded series of ethanol followed by acetone. After dehydration the cells were dried in a critical-point dryer and coated with gold before observation by scanning electron microscopy (Zeiss DSM940A).

For data set [5], the system named is human Mo-DCs. Kind of data set: Flow cytometry of cell surface markers on treated, LPS-matured Mo-DCs. The settings on record: treated throughout differentiation and maturation, LPS-matured; for CD1a expression / CD80 expression / CD83 expression / CD86 expression: dose-dependent; for expression of surface markers (CD14, HLA-DR, CD40, CD80, CD83, CD86, CD1a): vs untreated mDC. It is filed as cell-based. How it is done: Peripheral blood mononuclear cells (PBMCs) were obtained from buffy coat preparations belonging to healthy donors from the Blood and Tissue Bank (Barcelona, Spain) after Ficoll-Paque™ density centrifugation (GE Healthcare Bio-Sciences AB; Uppsala, Sweden). Monocytes were purified by two different methods: 1) Cells were plated at 1×10^6 cells/ml in 60 mm culture plates (Corning, Spain) in RPMI without serum and allowed to adhere for 2 h at 37° C. in 5% CO2. The non-adherent cells were removed by washing in PBS. […] 2) Cells were purified using colloidal super-paramagnetic microbeads conjugated with monoclonal mouse anti-human CD14 antibodies (MACS, Miltenyi Biotec, Auburn, Calif., or EasySep® Positive Selection Cocktail, StemCell Technologies, Grenoble, France). The purity of CD14^+ cells was tested by CD14 staining and flow cytometry analysis (>90% CD14^+ cells). Monocyte-derived DCs (Mo-DCs) were generated supplementing the monocyte cultures with complete RPMI 1640 medium plus GM-CSF (800 UI/ml) and IL-4 (500 UI/ml) (both from Gentaur, Kampenhout, Belgium) at day 0 and day 3 of culture. For DC maturation, at day 5 iDCs were further stimulated for 48 h with 5 μg/ml LPS (Escherichia coli 055.B5, Sigma L2880, Copenhagen, Denmark).
Cell surface phenotypes were analyzed using the following monoclonal antibodies: FITC-conjugated anti-HLA-DR (Immu-357), FITC-conjugated anti-CD83 (HB15a), FITC-conjugated anti-CD14 (RMO52), PE-conjugated anti-CD40 (MAB89), PE-conjugated anti-CD1a (BL6), PE-conjugated anti-CD80 (MAB104), PE-conjugated anti-CD86 (HA5.2B7) (all from Beckman-Coulter), Alexa Fluor 488-conjugated anti-CCR7 (TG8/CCR7, Biolegend, San Diego, Calif.), and the respective isotype controls from the same commercial sources. After washing with PBS, cells were subsequently stained with 3 μl MoAb/10^5 cells in 100 μl of FACS buffer (PBS containing 1% BSA and 0.1% sodium azide) for 20 min at room temp. Stained cells were analysed using a FACScalibur (Becton Dickinson). Mo-DCs were gated according to forward scatter (FSC) and side scatter (SSC) parameters. The results were analysed using CellQuestPro software (Becton Dickinson).
Both the different C4BP isoforms (α7β1, α7β0 and α6β0), and Factor H were added at 2, 5 and 10 μg/ml throughout Mo-DC differentiation, maturation, or both. Namely, for the differentiation assays the proteins were added at day 0 and replenished at day 3. For the maturation assays the proteins were added at day 5, either alone or combined with LPS. Finally, for the differentiation plus maturation assays the proteins were added at days 0, 3 and 5 (at the last time point, combined with LPS).

As for “PS6-04: SEQ ID NO:5 ITQHRK SRPANHSV, 14-mer CCP6-derived peptide (ITQHRKSRPANHSV; PS6-04)”, in data set [1], the “CD83 upregulation on LPS-matured Mo-DCs” value is given as “comparable effect than its C4BP α6β0 counterpart”.
For “Ac-HRKSRPANHSVYFYGDEISFSSHETSRFSA-NH2 [PS6-02]”, in data set [1], the “CD83 upregulation on LPS-matured Mo-DCs” value is recorded as “seemed to prevent CD83 upregulation” and the “toxicity to the DCs” value was “toxic”.
As for “PS6-03: SEQ ID NO:4 EISFSSH ETSRFSAISQ GDGTWSPRTP SSG, CCP6-derived peptide (EISFSSHETSRFSAISQGDGTWSPRTPSSG; PS6-03)”, the “CD83 upregulation on LPS-matured Mo-DCs” value in data set [1] is recorded as “seemed to prevent CD83 upregulation”.

B1: C4BP α7β0: C4BP isoform exclusively composed of 7 α-chains, purified from pooled human plasma (protein, UniProt P04003 49-597, looked up)
C4b-binding protein alpha …: NCGPPPTLSFAAPMDITLTETRFKTGTTLKYTCLPGYVRSHSTQTLTCNSDGEWVYNTFCIYKRCRHPGELRNGQVEIKTDLSFGSQIEFSCSEGFFLIGSTTSRCEVQDRGVGWSHPLPQCEIVKCKPPPDIRNGRHSGEENFYAYGFSVTYSCDPRFSLLGHASISCTVENETIGVWRPSPPTCEKITCRKPDVSHGEMVSGFGPIYNYKDTIVFKCQKGFVLRGSSVIHCDADSKWNPSPPACEPNSCINLPDIPHASWETYPRPTKEDVYVVGTVLRYRCHPGYKPTTDEPTTVICQKNLRWTPYQGCEALCCPEPKLNNGEITQHRKSRPANHCVYFYGDEISFSCHETSRFSAICQGDGTWSPRTPSCGDICNFPPKIAHGHYKQSSSYSFFKEEIIYECDKGYILVGQAKLSCSYSHWSAPAPQCKALCRKPELVNGRLSVDKDQYVEPENVTIQCDSGYGVVGPQSITCSGNRTWYPEVPKCEWETPEGCEQVLTGKRLMQCLPNPEDVKMALEVYKLSLEIEQLELQRDSARQSTLDKEL
On to B1, for which the “allogeneic T cell proliferation” value in data set [2] is given as “significantly less T cell proliferation”. In addition, in data set [3], the BIC-1 transcript level entry was “significantly down-regulated”, the CCR7 transcript level entry was “significantly down-regulated” and the IDO transcript level entry was “significantly down-regulated”. Moreover, the “surface morphology of Mo-DCs” value in data set [4] is “absence of long dendritic projections; also recorded: reversed the “porcupine like” DC morphology”. For the same molecule, in data set [5], the CD1a expression entry is on record as “significantly down-regulated”, the CD80 expression result was “significantly down-regulated”, the CD83 expression entry is on record as “significantly down-regulated” and the CD86 expression result is given as “significantly down-regulated”. The “expression of surface markers (CD14, HLA-DR, CD40, CD80, CD83, CD86, CD1a)” value in data set [5] is on record as “inhibit up-regulation”.

B2: C4BP α6β0: polymeric recombinant full-length C4BP of 6 α-chains, expressed in eukaryotic cells (protein, UniProt P04003 49-597, looked up)
C4b-binding protein alpha …: NCGPPPTLSFAAPMDITLTETRFKTGTTLKYTCLPGYVRSHSTQTLTCNSDGEWVYNTFCIYKRCRHPGELRNGQVEIKTDLSFGSQIEFSCSEGFFLIGSTTSRCEVQDRGVGWSHPLPQCEIVKCKPPPDIRNGRHSGEENFYAYGFSVTYSCDPRFSLLGHASISCTVENETIGVWRPSPPTCEKITCRKPDVSHGEMVSGFGPIYNYKDTIVFKCQKGFVLRGSSVIHCDADSKWNPSPPACEPNSCINLPDIPHASWETYPRPTKEDVYVVGTVLRYRCHPGYKPTTDEPTTVICQKNLRWTPYQGCEALCCPEPKLNNGEITQHRKSRPANHCVYFYGDEISFSCHETSRFSAICQGDGTWSPRTPSCGDICNFPPKIAHGHYKQSSSYSFFKEEIIYECDKGYILVGQAKLSCSYSHWSAPAPQCKALCRKPELVNGRLSVDKDQYVEPENVTIQCDSGYGVVGPQSITCSGNRTWYPEVPKCEWETPEGCEQVLTGKRLMQCLPNPEDVKMALEVYKLSLEIEQLELQRDSARQSTLDKEL
For B2, in data set [3], the BIC-1 transcript level result was “significantly down-regulated”, the CCR7 transcript level result is given as “significantly down-regulated” and the IDO transcript level result was “significantly down-regulated”. Moreover, the “surface morphology of Mo-DCs” value in data set [4] was “reversed the “porcupine like” DC morphology”. Moreover, in data set [5], the CD1a expression entry is listed as “significantly down-regulated”, the CD80 expression result is “significantly down-regulated”, the CD83 expression result was “significantly down-regulated” and the CD86 expression entry is on record as “significantly down-regulated”. In addition, in data set [5], the “expression of surface markers (CD14, HLA-DR, CD40, CD80, CD83, CD86, CD1a)” value is given as “inhibit up-regulation”.

These data come from patent US10106589B2, “Compositions and methods for immunomodulation” (FUNDACIO INSTITUT D'INVESTIGACIO BIOMEDICA DE BELLVITGE …, priority 2011, dated 2018).
